Laboratory results published in article PMC6035183, “ETS transcription factors induce a unique UV damage signature that drives recurrent mutagenesis in melanoma”.

T1: ETS1 (ETS1ΔN280) (UniProt P27577 280-440)
T1 sequence: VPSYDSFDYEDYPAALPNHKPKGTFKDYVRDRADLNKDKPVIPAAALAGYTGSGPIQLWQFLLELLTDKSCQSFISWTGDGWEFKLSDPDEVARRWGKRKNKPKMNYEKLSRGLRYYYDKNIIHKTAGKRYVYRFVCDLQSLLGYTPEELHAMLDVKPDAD


Columns and labels:
ETS1 (ETS1ΔN280) [1] = molecular target: T1, ETS1 (ETS1ΔN280); assay: EMSA; 4 pmol DNA, 0-32 pmol ETS1; two shifted bands at low ETS1; 25 mM Tris-Cl pH 7.9, 10% glycerol, 6 mM MgCl2, 0.5 mM EDTA, 60 mM KCl, 0.5 mM DTT, 200 ug/ml BSA; 40 ul, 40 min on ice; 8% native PAGE; conditions: protein: recombinant; label: 5'-32P on S14 (TTCC strand); blunt
ETS1 (ETS1ΔN280) [2] = molecular target: T1, ETS1 (ETS1ΔN280); assay: EMSA; 4 pmol DNA, 0-32 pmol ETS1; multiple shifted bands; 25 mM Tris-Cl pH 7.9, 10% glycerol, 6 mM MgCl2, 0.5 mM EDTA, 60 mM KCl, 0.5 mM DTT, 200 ug/ml BSA; 40 ul, 40 min on ice; 8% native PAGE; conditions: protein: recombinant; label: 5'-32P on S15 (TTCC strand); blunt

Binder | binding result (ETS1 (ETS1ΔN280) [1]) | binding result (ETS1 (ETS1ΔN280) [2])
RPL13A promoter fragment (dsDNA, 5'-biotin on S13) DNA 1: GTCCAATCCGGACATTCTTCCGGTTGGACC DNA 2: GGTCCAACCGGAAGAATGTCCGGATTGGAC | binds | –
SDHD promoter fragment (dsDNA, 5'-biotin on S16) DNA 1: CTCGACTTCCGGTTCACCCAGCATTTCCTCTTCCCTGTT DNA 2: AACAGGGAAGAGGAAATGCTGGGTGAACCGGAAGTCGAG | – | binds
